Results reported in the supplement of paper PMC9170038.

Test system: MS2 coat protein
Assay: apparent KD of MS2 coat protein; designed switch direction (-1 OFF switch, 1 ON switch): -1; higher = weaker reporter binding
Summary of the method: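 Normalised cluster fluorescence was curve-fitted, and each design's median over clusters is its apparent KD. Before this, SNAP-549-labelled MS2 coat protein was titrated from 0.7 or 1.5 nM, doubling to 3 µM, over RNA switches transcribed on Illumina chips by stalled E. coli RNA polymerase. Titrations had no input, 200 uM small-molecule ligand, or an oligonucleotide input, and steps lasted 0.8–1.5 h (lowest) to 10–20 min (highest).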

[1] = Eterna round: R95, input ligand: microRNA oligo, concentration not stated
[2] = input ligand: microRNA oligo, concentration not stated

Sequence | apparent KD of MS2 coat protein [1] | apparent KD of MS2 coat protein (input ligand: FMN 200 uM) | apparent KD of MS2 coat protein (input ligand: none) | also measured
AAUCUGUGAGGAUAUGGUGAGUAGUGCCUGAGCGCUGCUCACCAGAAGGCACAUGAGGAUCACCCAUGUAUGAC [Mat - Exclusion 4 - Mod of JL - D2] (puzzle: Exclusion 4) | 0.0277 µM | – | – | –
CCUAUGUGAGGAUAUCACUGGUCUUCUUUUAUUUUUUACAGUGAGAAGGCACAUGAGGAUCACCCAUGUCGGUG [Ex4 - 3 - 49] (Eterna round: R96, puzzle: Exclusion 4) | – | 0.0984 µM | 0.192 µM | apparent KD of MS2 coat protein [2]: 0.115 µM
GGAUCGAUAGUGAGGAUAUACCACUGGAUACAGUGGUAGAAGGCACAUGAGGAUCACCCAUGUCCUAACGAUCC [Fiskers BMX 4 - 49] (puzzle: Brourd's mod of Exclusion 4) | 0.0176 µM | – | – | –
GAUCCUUCUGUUAGGAUAUGCAACGGGCUUCCGCAGCAGAAGGAACAUGAGGAUCACCCAUGUCAAAUAAAAUC [JL-BMX4-4.36 ViennaUCT mod] (Eterna round: R97, puzzle: Brourd's mod of Exclusion 4) | – | 0.0541 µM | 0.0187 µM | –
AGCCACAGAGGAUAUACAUACAUCCAGUAGCGUAUAUCGCUACAUGAGGAUCACCCAUGUAGAAGGCUGUGGCA [Omei Ex2 BD B23] (Eterna round: R97, puzzle: Exclusion 2) | – | 0.0867 µM | 0.0184 µM | –
CACCCACAUGAGGAUCACCCAUGUGAGGAUAUGAUACUAUGUACUUCGGUACAUAGUAUCAGAAGGCACAGGUG [Ex1-3: 61] (puzzle: Exclusion 1) | 0.0303 µM | – | – | –
UAUUAGCAAGUGAGAUCCCACAUGAGGAUCACCCAUGUGCUCGUCUUUUAACGUACUGUGAGGAAACUCACGGUACG [Sensor-V1 #82] (Eterna round: R97, puzzle: Sensor, turn-off variant 1) | – | 0.0621 µM | 0.0671 µM | –
CGAUGCUCGAGUCGACAUGAGGAUCACCCAUGUAGAGUUAGCGAGGAUAUCGGAGACACAUAGUAUGAGAAGGCGCGAACCUGA [Ex NG3 #19] (Eterna round: R96, puzzle: Exclusion NG 3) | – | 0.0362 µM | 0.0167 µM | apparent KD of MS2 coat protein [2]: 0.0123 µM
ACGAUGACAGAAAGAAGUCAAAAGACAUGAGGAUCACCCAUGUAGGAUAUGGCUACGAAAAGUAGUCAGAAGGACAUGUCAUCA [Omei Exc(NG) 3 Av3] (Eterna round: R96, puzzle: Exclusion NG 3) | – | 0.0135 µM | 0.0168 µM | apparent KD of MS2 coat protein [2]: 0.00879 µM
GUUAGACAUGAGGAUCACCCAUGUGAGGAUAUGAUGCGAUCGUGCUGACAUGAUCGCAUCAGAAGGCACAUAUG [Mat - Mod of JL D66] (puzzle: Exclusion 1) | 0.0957 µM | – | – | –
AAGAAACAUGAGGAUCACCCAUGUGAGGAUAUGAGGAAGAAAAGAAAAGAAAGAAGAUUCAGAAGGCACAAAGG [salish99-ex1_r3_058] (puzzle: Exclusion 1) | 0.0351 µM | – | – | apparent KD of MS2 coat protein (Eterna round: R95, input ligand: FMN 200 uM): 0.0963 µM; apparent KD of MS2 coat protein (Eterna round: R95, input ligand: none): 0.0591 µM
GGUGGACAUGAGGAUCACCCAUGUGAGGAUAUCGGCUAUCUACUCGCUGACGGCUGCUCGAGAAGGCACAUUGU [Exclusion 1 V91] (puzzle: Exclusion 1) | 0.0546 µM | – | – | –
GCAGGUUAAGUCAGGAUAUACCUCUGGAAACAGAGGUAGAAGGGACAUGAGGAUCACCCAUGUUUCUCAUCUGC [Mod of Eli 3 - Jieux - Brourd's mod of Exclusion 4] (Eterna round: R97, puzzle: Brourd's mod of Exclusion 4) | – | 0.0856 µM | 0.0192 µM | –
UUGUACAGAGGAUAUACAUGAGGAUCACCCAUGUGUUUCAGCUAGGAGACUAGCGAAAGUAGAAGGCUGUACUC [salish99_ex3_r4_015] (Eterna round: R97, puzzle: Exclusion 3) | – | 0.0239 µM | 0.0111 µM | –
